Values quoted from earlier work in article PMC8073936.

Biological target: TRF1 (Homo sapiens) (UniProt P54274)
Sequence of UniProt P54274 (P54274 2-439): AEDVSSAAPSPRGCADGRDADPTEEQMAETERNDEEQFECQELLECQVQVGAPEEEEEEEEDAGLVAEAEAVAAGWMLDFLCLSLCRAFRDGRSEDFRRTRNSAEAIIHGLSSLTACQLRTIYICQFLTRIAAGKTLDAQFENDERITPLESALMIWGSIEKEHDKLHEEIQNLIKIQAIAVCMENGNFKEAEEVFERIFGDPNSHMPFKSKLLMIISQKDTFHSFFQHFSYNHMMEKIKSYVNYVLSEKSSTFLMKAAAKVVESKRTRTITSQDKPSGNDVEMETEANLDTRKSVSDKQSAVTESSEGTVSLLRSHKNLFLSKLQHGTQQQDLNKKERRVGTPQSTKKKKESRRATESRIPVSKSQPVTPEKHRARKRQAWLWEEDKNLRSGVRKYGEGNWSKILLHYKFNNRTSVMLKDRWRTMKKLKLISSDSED

Kd: 0.4 nM
Substance: Ku70/80 (from UniProt P12956)
